# Measured values as given in publication PMC6557989, “The Molecular Basis of Human IgG-Mediated Enhancement of C4b-Binding Protein Recruitment to Group A Streptococcus” (Frontiers in Immunology, 2019).
# T1: Protein H (Streptococcus pyogenes (strain AP1), ^125I-labelled in the plate binding assay; Alexa-488 succinimidyl ester-labelled in thermophoresis; unlabelled elsewhere)
# T1 construct: Protein H, surface protein of the M protein family of Streptococcus pyogenes AP1; recombinant; theoretical mass of the monomer 42 kDa; written as the single chain because its self-association is itself measured; also called ^125I-Protein H; source: E. coli, expressed and purified (previously described protocols)
# T1 chain: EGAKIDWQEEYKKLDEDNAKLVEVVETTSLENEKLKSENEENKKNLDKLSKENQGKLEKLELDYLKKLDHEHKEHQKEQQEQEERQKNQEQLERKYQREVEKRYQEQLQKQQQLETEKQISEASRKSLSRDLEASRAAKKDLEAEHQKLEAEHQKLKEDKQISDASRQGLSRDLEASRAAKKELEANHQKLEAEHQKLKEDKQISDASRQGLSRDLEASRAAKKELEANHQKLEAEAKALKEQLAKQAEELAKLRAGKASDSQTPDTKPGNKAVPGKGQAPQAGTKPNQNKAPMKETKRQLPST
# Biological target: T1, Protein H
# Assay: native gel or EMSA; native horizontal agarose gel, 75 mM sodium barbital pH 8.6, Coomassie blue; two proteins pre-incubated in PBS 1 h at 37°C (ratios as C4BP:IgG:Protein H 1:10:10)
# Details: both partners purified
binder,measurement,value
"Denosumab (monoclonal human IgG2) (antibody, V domains shown, constant region of the human IgG2 heavy chain; it is here the ligand of Protein H through its Fc; Recombinantly expressed drug antibody; also called hu-IgG2; source: bought: Amgen) VH: EVQLLESGGGLVQPGGSLRLSCAASGFTFSSYAMSWVRQAPGKGLEWVSGITGSGGSTYYADSVKGRFTISRDNSKNTLYLQMNSLRAEDTAVYYCAKDPGTTVIMSWFDPWGQGTLVTVSS VL: EIVLTQSPGTLSLSPGERATLSCRASQSVRGRYLAWYQQKPGQAPRLLIYGASSRATGIPDRFSGSGSGTDFTLTISRLEPEDFAVFYCQQYGSSPRTFGQGTKVEIK",binding result,binds
